Laboratory results: patent US20220411799, “DNMT1-Specific Aptamers and Production and Uses Thereof” (National University of Singapore, published 2022)

Tests used:
[1] = target: Human serum albumin (HSA) (Homo sapiens, UniProt P02768 P02768:25-609); assay: ELONA; no significant binding up to 750 nM; conditions: label: 3'-biotin (ELONA, pulldown); hairpin
Experimental: (§1) Microtiter High Binding plate (Nunc MaxiSorp) wells were coated with 30 nM of His-tagged DNMT1 (Active Motif) or HSA overnight at 4° C. All subsequent steps were performed at room temperature. After incubation, the plate was washed once with PBS and then blocked each well with 300 μl 3% BSA (AppliChem) in PBS for 2 hours. After two washes, the plate was incubated with 100 μL of 3′-biotinylated aptamers dissolved in PBS for 2 hours. Next, the plate was washed three times and streptavidin-conjugated horseradish peroxidase (HRP) (Sigma Aldrich) was added (1:10000 dilution). After 1-hour incubation, the plate was washed four times and the 3,3′,5,5′-Tetramethylbenzidine (TMB) substrate solution was added. The reaction was stopped with sulfuric acid (H₂SO₄) 0,16 M, forming a yellow reaction product that was read with microplate Reader (Thermo Scientific) at 450 nm.
To check the aptamer specificity, the present disclosure monitored the binding of Ce-49 sh and Ce-10-2 sh to the human serum albumin (HSA), the most enriched plasma protein that can bind, in a nonspecific manner, nucleic acids through its positive charge, thus limiting their use. […] As shown, no significant aptamer binding was measured up to 750 nM concentration. Binding was instead detected when aptamers were incubated with DNMT1 protein (FIG. 7).

DNMT3A = DNMT3A (UniProt Q9Y6K1 Q9Y6K1:1-912); assay: BLI; specificity control
DNMT3B = DNMT3B (UniProt Q9UBC3 Q9UBC3:1-853); assay: BLI; specificity control
KAT5 = KAT5 (UniProt Q92993 Q92993:1-513); assay: BLI; specificity control; conditions: label: 3'-biotin (ELONA, pulldown); hairpin
DNMT1 [2] = target: T1, DNMT1 (Homo sapiens, UniProt P26358 P26358:1-1616); assay: BLI; BLItz, mutR5 background subtracted; conditions: tags: His-tagged (Active Motif), full-length; GST-tagged version (Active Motif) used for SELEX; label: 3'-biotin (ELONA, pulldown); hairpin
Source text: FIG. 4. Affinity and in vivo binding of DNMT1-specific aptamers. a. Analysis of Ce-49 sh and Ce-10 sh binding affinity to DNMT1 assessed by the Blitz system (ForteBIO). The background values obtained with mutR5 used as a negative control were subtracted from the values obtained with the aptamers; REMSA showing stronger Ce-49 sh and Ce-10 sh binding ability to DNMT1 than two alternative secondary structures of the original R5F (R5modified with 2′F-Py). Unrelated RNA and DNA are two […] controls. R01(unable to form stem-loop-like structures) is used as negative control; c. Increasing amount of Ce-49 sh and Ce-10 sh biotinylated aptamers were incubated in the presence or absence of HSA purified protein. No significant difference was detected between the blank control and the aptamers by ELONA. Error bars depict mean±s.d.; d. Aptamer-mediated pull-down. Protein extract from K562 cells were incubated with the biotinylated R5-F, Ce-49 sh and Ce-10-2 sh. Bound proteins were purified on streptavidin beads and immunoblotted with anti-DNMT1 antibodies.
Next, aptamer affinity to DNMT1 was assessed by the Blitz system (ForteBIO).

DNMT1 [3] = target: T1, DNMT1; assay: inhibition; in vitro DNMT1 inhibitor screening assay; conditions: tags: His-tagged (Active Motif), full-length; GST-tagged version (Active Motif) used for SELEX; label: 3'-biotin (ELONA, pulldown); hairpin
Experimental: FIG. 5. Functional activity of the aptamers. (a) Activity of purified DNMT1 protein was analyzed in vitro by DNMT1 inhibitor screening assay in the absence (“-”) or in the presence of indicated aptamers. Results are expressed as percentage relative to the activity of DNMT1 protein alone; b. DNMT1 inhibitor screening assay performed with K-562 nuclear extracts from untreated cells (NT), treated with a sequence unable to bind DNMT1 (control) or transfected with the respective aptamers Ce-10-2 sh and Ce-49 sh. Results are expressed as percentage relative to the activity detected in NT sample; c. expression levels 72 hours upon aptamers transfection; d, e. Cell viability of CML K562 cells (d) or NSCLC Calu-1 and A549 cells (e) transfected with indicated aptamers or Cont. for 72 hours. In (a-d) Error bars depict mean±s.d.; R5-F: R5 sequence modified with 2′F-Py.
As next step, the present disclosure tested aptamer ability to inhibit DNMT1-mediated methylation. As first attempt, the present disclosure performed an in vitro DNMT1 inhibitor screening assay. The activity of DNMT1 purified protein was measured in the absence or in the presence of R5-F or the selected short sequences. […] The functional effects of the best binders (Ce-49 sh and Ce-10-2 sh) was further characterized monitoring the in vivo DNMT1 activity by using cell nuclear extracts from chronic K562 CML cells transfected with the aptamers (FIG. 5b).

DNMT1 [4] = target: T1, DNMT1; assay: BLI; 100 nM to 2 uM; R2=0.9017; p159 states Kd not measurable; conditions: tags: His-tagged (Active Motif), full-length; GST-tagged version (Active Motif) used for SELEX; label: 3'-biotin (ELONA, pulldown); hairpin
Experimental: Dose-response binding analyses were also performed with the 2′F-pyrimidine modified R5 (indicated as DNMT1-bait) at concentrations ranging between 100 nM and 2 μM, since no binding was detected at lower concentrations (FIG. 8a). In accordance with previous findings, no binding was detected for the mutR5 sequence which is unable to fold in stem-loop-like structures and used as a negative control (FIG. 8b).

DNMT1 [5] = target: T1, DNMT1; assay: inhibition; all short sequences stated; conditions: tags: His-tagged (Active Motif), full-length; GST-tagged version (Active Motif) used for SELEX; label: 3'-biotin; hairpin
DNMT1 [6] = target: T1, DNMT1; assay: ELONA; 200 nM aptamer; conditions: tags: His-tagged (Active Motif), full-length; GST-tagged version (Active Motif) used for SELEX; label: 5'-biotin; hairpin
Experimental: as §1
The present disclosure identified three clusters of sequences with two aptamers (Ce-9 and Ce-10) representing the most enriched ones (FIG. 2a). These two aptamers present two mismatches among them and both had three mutation points compared to R5 (FIG. 2b). These sequences, together with Ce-49 that comes from a different cluster, were tested for the binding to DNMT1 purified protein by ELONA at 200 nM concentration.

T1 sequence (P26358 whole entry, one chain of several): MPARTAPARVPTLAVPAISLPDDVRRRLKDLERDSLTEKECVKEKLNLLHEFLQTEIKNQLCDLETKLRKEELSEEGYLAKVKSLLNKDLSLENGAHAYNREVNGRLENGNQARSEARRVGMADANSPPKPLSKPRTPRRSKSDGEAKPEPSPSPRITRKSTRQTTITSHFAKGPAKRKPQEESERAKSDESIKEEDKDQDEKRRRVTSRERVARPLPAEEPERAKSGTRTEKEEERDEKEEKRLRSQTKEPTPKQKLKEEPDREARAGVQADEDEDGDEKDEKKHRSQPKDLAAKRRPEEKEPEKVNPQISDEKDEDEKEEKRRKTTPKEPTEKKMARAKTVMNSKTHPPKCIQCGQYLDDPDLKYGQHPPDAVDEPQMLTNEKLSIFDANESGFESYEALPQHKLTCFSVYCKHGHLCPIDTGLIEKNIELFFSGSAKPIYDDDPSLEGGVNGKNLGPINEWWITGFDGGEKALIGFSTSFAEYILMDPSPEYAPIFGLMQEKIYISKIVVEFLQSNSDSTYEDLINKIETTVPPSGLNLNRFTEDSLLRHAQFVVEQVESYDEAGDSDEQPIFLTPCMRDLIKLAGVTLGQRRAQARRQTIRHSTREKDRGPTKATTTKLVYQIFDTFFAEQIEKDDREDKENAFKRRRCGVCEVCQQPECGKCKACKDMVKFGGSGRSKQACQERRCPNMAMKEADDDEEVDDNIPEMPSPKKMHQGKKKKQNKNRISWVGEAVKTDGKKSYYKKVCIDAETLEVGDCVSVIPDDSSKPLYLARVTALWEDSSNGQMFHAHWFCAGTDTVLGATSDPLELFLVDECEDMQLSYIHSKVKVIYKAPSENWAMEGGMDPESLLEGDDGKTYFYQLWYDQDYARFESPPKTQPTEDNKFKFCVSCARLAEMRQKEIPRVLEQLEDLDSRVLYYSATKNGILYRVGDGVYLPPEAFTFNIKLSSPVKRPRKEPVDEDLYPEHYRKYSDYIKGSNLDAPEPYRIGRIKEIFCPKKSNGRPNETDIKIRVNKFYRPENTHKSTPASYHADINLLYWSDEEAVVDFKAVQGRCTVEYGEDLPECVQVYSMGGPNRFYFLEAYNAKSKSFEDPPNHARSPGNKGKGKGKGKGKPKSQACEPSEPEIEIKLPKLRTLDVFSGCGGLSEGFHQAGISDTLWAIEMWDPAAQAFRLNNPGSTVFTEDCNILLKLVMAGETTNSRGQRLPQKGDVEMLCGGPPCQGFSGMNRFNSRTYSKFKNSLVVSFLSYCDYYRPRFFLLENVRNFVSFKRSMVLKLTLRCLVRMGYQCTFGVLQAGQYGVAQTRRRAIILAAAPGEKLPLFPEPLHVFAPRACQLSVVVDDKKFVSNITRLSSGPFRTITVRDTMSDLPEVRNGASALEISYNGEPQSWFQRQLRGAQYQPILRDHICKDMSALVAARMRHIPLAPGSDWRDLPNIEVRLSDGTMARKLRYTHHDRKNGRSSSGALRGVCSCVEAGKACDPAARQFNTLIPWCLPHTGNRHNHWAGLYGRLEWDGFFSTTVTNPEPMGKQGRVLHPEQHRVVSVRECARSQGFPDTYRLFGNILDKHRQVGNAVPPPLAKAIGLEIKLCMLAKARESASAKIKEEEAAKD
Chain of KAT5 (Q92993 whole entry, one chain of several): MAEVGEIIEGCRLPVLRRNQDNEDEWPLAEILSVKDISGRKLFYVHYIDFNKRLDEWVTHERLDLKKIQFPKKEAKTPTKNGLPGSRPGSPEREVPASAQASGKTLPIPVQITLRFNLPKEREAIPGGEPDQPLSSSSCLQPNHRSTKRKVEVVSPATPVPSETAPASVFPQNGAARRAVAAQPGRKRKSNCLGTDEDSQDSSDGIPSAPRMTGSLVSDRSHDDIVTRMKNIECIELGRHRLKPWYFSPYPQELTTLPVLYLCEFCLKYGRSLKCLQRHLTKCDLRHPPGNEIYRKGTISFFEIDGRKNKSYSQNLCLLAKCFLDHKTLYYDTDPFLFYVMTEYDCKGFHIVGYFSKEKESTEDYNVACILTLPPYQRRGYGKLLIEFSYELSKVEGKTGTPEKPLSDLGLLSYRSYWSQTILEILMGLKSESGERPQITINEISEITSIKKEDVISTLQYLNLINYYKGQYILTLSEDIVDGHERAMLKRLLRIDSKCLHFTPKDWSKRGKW
Chain of DNMT3A (Q9Y6K1 whole entry, one chain of several): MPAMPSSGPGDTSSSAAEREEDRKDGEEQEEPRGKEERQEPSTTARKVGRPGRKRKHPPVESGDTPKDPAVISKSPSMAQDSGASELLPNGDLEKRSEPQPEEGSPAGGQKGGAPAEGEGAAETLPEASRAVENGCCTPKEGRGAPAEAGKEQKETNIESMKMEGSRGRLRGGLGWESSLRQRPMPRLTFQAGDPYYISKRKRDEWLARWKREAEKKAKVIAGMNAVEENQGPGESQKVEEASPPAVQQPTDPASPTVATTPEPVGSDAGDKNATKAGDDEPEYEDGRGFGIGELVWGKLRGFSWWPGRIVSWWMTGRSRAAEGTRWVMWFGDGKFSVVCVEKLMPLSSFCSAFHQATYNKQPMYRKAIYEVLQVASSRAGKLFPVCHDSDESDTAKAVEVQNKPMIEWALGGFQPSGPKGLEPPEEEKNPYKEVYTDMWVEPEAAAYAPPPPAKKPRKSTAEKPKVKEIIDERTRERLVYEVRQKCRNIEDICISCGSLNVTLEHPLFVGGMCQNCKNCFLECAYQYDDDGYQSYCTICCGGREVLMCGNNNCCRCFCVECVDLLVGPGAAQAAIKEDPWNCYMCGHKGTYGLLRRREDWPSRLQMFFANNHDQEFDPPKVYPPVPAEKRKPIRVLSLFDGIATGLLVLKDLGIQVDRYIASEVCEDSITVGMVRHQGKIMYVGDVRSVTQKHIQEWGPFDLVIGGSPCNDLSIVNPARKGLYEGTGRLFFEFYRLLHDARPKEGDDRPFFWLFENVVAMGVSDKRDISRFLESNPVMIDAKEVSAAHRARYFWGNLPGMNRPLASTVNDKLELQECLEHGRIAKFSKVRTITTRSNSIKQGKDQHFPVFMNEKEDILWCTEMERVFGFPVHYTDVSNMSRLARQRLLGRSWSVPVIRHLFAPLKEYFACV
Chain of Human serum albumin (HSA) (P02768 25-609, one chain of several): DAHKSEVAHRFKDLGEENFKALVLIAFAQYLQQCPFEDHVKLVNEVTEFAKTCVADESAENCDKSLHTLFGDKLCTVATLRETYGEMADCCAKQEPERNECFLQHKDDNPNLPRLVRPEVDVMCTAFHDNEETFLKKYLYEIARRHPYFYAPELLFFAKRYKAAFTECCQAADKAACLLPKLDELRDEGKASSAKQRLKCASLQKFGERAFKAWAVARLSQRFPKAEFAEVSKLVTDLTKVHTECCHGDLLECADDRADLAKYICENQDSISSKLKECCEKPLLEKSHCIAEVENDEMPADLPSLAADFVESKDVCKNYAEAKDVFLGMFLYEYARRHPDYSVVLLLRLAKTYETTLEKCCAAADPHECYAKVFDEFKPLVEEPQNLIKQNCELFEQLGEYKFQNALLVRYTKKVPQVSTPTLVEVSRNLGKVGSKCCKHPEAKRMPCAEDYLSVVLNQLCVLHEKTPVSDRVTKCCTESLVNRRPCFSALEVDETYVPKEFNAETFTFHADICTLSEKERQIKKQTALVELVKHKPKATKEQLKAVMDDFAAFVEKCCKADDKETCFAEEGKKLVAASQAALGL

UUACUGGGCUGAGGUAAUGGCGAGG (ssRNA, 2'-F pyrimidines) [Ce-10-2 sh]: no binding [1]; no binding (DNMT3A); no binding (DNMT3B). The binding result (KAT5) was “no binding”, the Kd (DNMT1 [2]) was about 66 nM and the activity (DNMT1 [3]) was about 40 % inhibition.

CUGAGGCCUAACGAAGGCUUCU (ssRNA, 2'-F pyrimidines) [Ce-49 sh]: no binding [1]; no binding (DNMT3A); no binding (DNMT3B). The binding result (KAT5) was “no binding”, the Kd (DNMT1 [2]) was about 79 nM and the activity (DNMT1 [3]) was about 40 % inhibition.

CUGAGGCCUUGGCGAGGCUUCU (ssRNA, 2'-F pyrimidines) [R5-F (DNMT1 bait)]: no binding (DNMT3A); no binding (DNMT3B); no binding (KAT5). It also gave a Kd (DNMT1 [4]) of 600 nM and an activity (DNMT1 [3]) of about 40 % inhibition.

UGGGCUGAGCUCAUGGCGAGGCUUC (ssRNA, 2'-F pyrimidines) [Ce-9 sh] was tested, and the activity (DNMT1 [5]) was about 40 % inhibition.

Binder AGGUAAUGGCGAGGCUUCUUAUCUG (ssRNA, 2'-F pyrimidines) [Ce-10-1 sh] has an activity (DNMT1 [5]) of about 40 % inhibition.

Work on CUGAGGUAAUGGCGAGGCUUCU (ssRNA, 2'-F pyrimidines (listed with T in the sequence, described as RNA)) [Ce-10-R5] yielded an activity (DNMT1 [5]) of about 40 % inhibition.

B1: Ce-9 (long, 61-mer) (ssRNA)
RNA: GGGCUGAAGGGGUUACUGGGCUGAGCUCAUGGCGAGGCUUCUUAUCUGCCCCGGGGAGGAG
modifications: 2'-F pyrimidines
B1: binds (DNMT1 [6]).

B2: Ce-10 (long, 61-mer) (ssRNA)
RNA: GGGCUGAAGGGGUUACUGGGCUGAGGUAAUGGCGAGGCUUCUUAUCUGCCCCGGGGAGGAG
modifications: 2'-F pyrimidines
B2: binds (DNMT1 [6]).

B3: Ce-49 (long, 61-mer) (ssRNA)
RNA: GGGCUGAAGGGGUUACUGGGCUGAGGCCUAACGAAGGCUUCUUAUCUGCCCCGGGGAGGAG
modifications: 2'-F pyrimidines
B3: binds (DNMT1 [6]).
